Results published in patent US20230406948A1 (APEXIGEN, published 2023).

What was measured:
[1] = molecular target: T1, human CD40 on cells (native CD40 on Ramos cells, human B cells, human monocyte-derived dendritic cells); cell … (human, UniProt P25942 21-193); assay: cell-based or functional assay
[2] = molecular target: T1, human CD40 on cells (native CD40 on …); assay: FACS on live Ramos cells, goat anti-human IgG (H+L) PE
Experimental: (§1) In another experiment, the ability of the CD40 antibodies to bind to native CD40 protein was determined by FACS analysis with live Ramos cells. Ramos cells were harvested and blocked with 1.5 ml blocking buffer (0.1% BSA/PBS) for 30 minutes. Antibodies at various concentrations were added to cells and incubated for 1 hour. After washing, 50 ul Goat-anti-human IgG (H+L) PE antibody at 1:1000 dilution in blocking solution was added and incubated for 30 minutes. Cells were then washed with PBS and were re-suspended with […] and analyzed by FACS. The antibodies tested were the 19-21 rabbit anti-CD40 agonist antibody, SGN-40 developed by Seattle Genetics and CP870893 from Pfizer.

[3] = molecular target: T1, human CD40 on cells (native CD40 on …); assay: cell-based or functional assay; remark: listed apart in the source
[4] = molecular target: T1, human CD40 on cells (native CD40 on …); assay: FACS on live Ramos cells, goat anti-human IgG PE
Experimental: as §1

CD40-Fc protein = molecular target: T2, CD40-Fc protein (Homo sapiens (Human), UniProt P25942 21-193); assay: ELISA, plates coated with CD40-Fc protein, OD405nm
T2 construct: not shown: Fc
Excerpt: In order to assess the ability of the APX005 […] mutant to bind to CD40, APX005 S267E heavy chain and light chain plasmids were purified from transformed bacteria and transfected into 293-6E cell. Four days after transfection, antibody-containing culture supernatants were collected and tested for binding to CD40 using ELISA (ELISA plates coated with CD40-Fc protein).

T1 sequence (P25942 21-193): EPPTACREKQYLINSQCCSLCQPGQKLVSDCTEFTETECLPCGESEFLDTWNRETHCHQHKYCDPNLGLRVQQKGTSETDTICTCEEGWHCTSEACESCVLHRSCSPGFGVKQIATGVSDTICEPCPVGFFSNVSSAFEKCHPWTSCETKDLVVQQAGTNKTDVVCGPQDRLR
T2 sequence (P25942 21-193 limits assumed): as the sequence (P25942 21-193) above

Row | Binder | Pro-apoptosis activity (IC50) [1] [µg/mL] | EC50 [2] [µg/mL] | further results
1 | cR-33, chimeric R-33 (rabbit Fab and human IgG1) (antibody, V domains shown) VH: QSLEESGGDLVKPGASLTLTCTASGFSFSSSYWICWVRQAPGKGLEWIACINTGSSVTTVYARWAKGRFTISKASSTTVTLQMTSLTAADTATYFCARYIIPGYNFNLWGPGTLVTVSS VL: AYDMTQTPASVEVAVGGTVTINCQASQSISSYLYWYQQKPGQPPKLLIYDASKLASGVPSRFKGSGSGTQFTLTITGVECADAATYYCQQGYSHINVDNIFGGGTEVVVK | 0.9 | – | –
2 | c19-21, chimeric 19-21 (rabbit Fab and human IgG1) (antibody, V domains shown) VH: QSLEESGGRLVTPGTPLTLTCTVSGFDLSSNAMNWVRQAPGKGLEWIGYITISGSAGYASWAKGRFTISKTSTTVDLKISSPTTEDTATYFCARGYNTMAIWGPGTLVTVSS VL: AQVLTQTPSPVSAPVGGTVTINCQSSQNVLINNRLAWYQQKPGQPPKLLIYDASKLASGVPSRFKGSGSGTQFTLTISGVQCDDAATYYCQAGYSSGDGNAFGGGTEVVVK | 0.02 | – | –
3 | 19-21 rabbit anti-CD40 agonist antibody (antibody, V domains shown, Whether the rabbit or the chimeric form was used there is not clear) VH: QSLEESGGRLVTPGTPLTLTCTVSGFDLSSNAMNWVRQAPGKGLEWIGYITISGSAGYASWAKGRFTISKTSTTVDLKISSPTTEDTATYFCARGYNTMAIWGPGTLVTVSS VL: AQVLTQTPSPVSAPVGGTVTINCQSSQNVLINNRLAWYQQKPGQPPKLLIYDASKLASGVPSRFKGSGSGTQFTLTISGVQCDDAATYYCQAGYSSGDGNAFGGGTEVVVK | – | 0.0201 | –
4 | CP870893 (antibody, V domains shown) VH: not shown VL: DIQMTQSPSSVSASVGDRVTITCRASQGIYSWLAWYQQKPGKAPNLLIYTASTLQSGVPSRFSGSGSGTDFTLTISSLQPEDFATYYCQQANIFPLTFGGGTKVEIK | – | 0.171 | EC50 (ng/ml), CD40 agonist activity: up-regulation of CD86 on human B cells [3]: 37 ng/mL
5 | cR-3, chimeric R-3 (rabbit Fab and human IgG1) (antibody, V domains shown) VH: QSLEESGGDLVKPGASLTLTCTASGFSFSDSFWIAWVRQAPGKGLEWIGCIHALSSGSTYYANWARGRFTISKTSSTTVTLQMNSLTAADTATYFCARSYAGYADYNVATGLNLWGPGTLVTVSS VL: DVVMTQTPSSASAAVGGTVTTKCQASQSIGSYLAWYQQKPGQRPKLLIYAASNLASGVPSRFKGSRSGTEYTLTISGVQREDAATYYCLGSFTGSDTTFGGGTELEIL | 0.57 | – | –
6 | cR-8, chimeric R-8 (rabbit Fab and human IgG1) (antibody, V domains shown) VH: QSLEESGGDLVKPGASLTLTCTASGFSFSSTYVCWVRQAPGKGLEWIACIYTGDGTNYSASWAKGRFTISKPSSTTVTLQMTSLTPADTATYFCARPDITYGFAINFWGPGTLVTVSS VL: DIVMTQTPSSASEPVGGTVTIKCQASQSISSRLAWYQQKPGQPPKLLIYRASTLASGVPSRFKGSGSGTEFTLTISDLECADAATYYCQCTGYGISWPIGGGTEVVVK | 0.45 | – | –
7 | APX005 S267E mutant (antibody, human IgG1, V domains shown) VH: QVQLVESGGGVVQPGRSLRLSCAASGFSFSSTYVCWVRQAPGKGLEWIACIYTGDGTNYSASWAKGRFTISKDSSKNTVYLQMNSLRAEDTAVYFCARPDITYGFAINFWGPGTLVTVSS VL: DIQMTQSPSSLSASVGDRVTIKCQASQSISSRLAWYQQKPGKPPKLLIYRASTLASGVPSRFSGSGSGTDFTLTISSLQPEDVATYYCQCTGYGISWPIGGGTKVEIK | – | 0.0266 | EC50 (ng/ml), CD40 agonist activity: up-regulation of CD86 on human B cells [3]: 4.15 ng/mL; fold higher affinity than CP870893 [4]: 6 fold; EC50 (CD40-Fc protein): 0.0551 µg/mL
